Common to all, as to assay: ELISA, 50 nM mAb
In test [1] the target is T1, Sulfotyrosine CCR2b biotin peptide (human).
T1 construct: also called CCR2b peptide
T1 peptide: TTFFD[sY]D[sY]GAPSHGGK(Biotin)
On the procedure:
(§1) Recombinant PSGL-1-hFc1 chimera protein consisting of PSGL-1's extracellular domain (ECD) served as a positive control. […] Primary antibody was added (25 ul per well) in duplicate at 50 nM in assay buffer (blocking buffer containing 0.05% Tween®20) into test and control (just blocked) wells and the plate incubated for 45 min at 37° C.

The target in another test is T2, SulfoTyr C4 peptide (not fully specified; Y4, Y7 and Y9 sulfated (SO3); C-terminal biotin).
T2 construct: also called C4 alpha chain peptide; human sulfotyrosinylated C4 peptide
T2 peptide: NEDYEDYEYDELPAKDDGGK
On the procedure:
as §1

The next test has as its target T3, SulfoCCK biotin peptide (human).
T3 construct: also called sulfotyrosine CCK peptide
T3 peptide: SHRISDRD[sY]MGWMDFGGK(Biotin)
On the procedure: as §1

Test [2] addresses T4, Human fibrinogen protein (ThermoFisher, RP-43142) (human, UniProt P02671 20-629; P02675 31-491; P02679 27-453, limits assumed, natural sulfotyrosines).
T4 construct: mature; Native dimer with 3 pairs of non-identical chains; also called gamma-fibrinogen; γ fibrinogen protein
T4 sequence (looked up) 1: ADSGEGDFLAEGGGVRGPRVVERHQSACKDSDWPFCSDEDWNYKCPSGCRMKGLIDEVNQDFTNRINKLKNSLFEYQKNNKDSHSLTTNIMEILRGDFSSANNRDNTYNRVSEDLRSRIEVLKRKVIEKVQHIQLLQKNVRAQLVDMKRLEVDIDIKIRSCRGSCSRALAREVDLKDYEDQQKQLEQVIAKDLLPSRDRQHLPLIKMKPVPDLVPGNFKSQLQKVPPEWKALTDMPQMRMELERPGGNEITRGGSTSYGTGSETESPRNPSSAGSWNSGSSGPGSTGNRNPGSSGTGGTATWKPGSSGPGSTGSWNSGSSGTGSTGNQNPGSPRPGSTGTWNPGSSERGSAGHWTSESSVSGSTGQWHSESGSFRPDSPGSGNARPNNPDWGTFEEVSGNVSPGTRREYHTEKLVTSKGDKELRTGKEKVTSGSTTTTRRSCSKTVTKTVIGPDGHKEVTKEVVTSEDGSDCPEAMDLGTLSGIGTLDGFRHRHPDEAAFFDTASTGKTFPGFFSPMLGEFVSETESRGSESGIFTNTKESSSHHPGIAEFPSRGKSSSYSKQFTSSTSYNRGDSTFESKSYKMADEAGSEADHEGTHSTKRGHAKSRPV
T4 sequence (looked up) 2: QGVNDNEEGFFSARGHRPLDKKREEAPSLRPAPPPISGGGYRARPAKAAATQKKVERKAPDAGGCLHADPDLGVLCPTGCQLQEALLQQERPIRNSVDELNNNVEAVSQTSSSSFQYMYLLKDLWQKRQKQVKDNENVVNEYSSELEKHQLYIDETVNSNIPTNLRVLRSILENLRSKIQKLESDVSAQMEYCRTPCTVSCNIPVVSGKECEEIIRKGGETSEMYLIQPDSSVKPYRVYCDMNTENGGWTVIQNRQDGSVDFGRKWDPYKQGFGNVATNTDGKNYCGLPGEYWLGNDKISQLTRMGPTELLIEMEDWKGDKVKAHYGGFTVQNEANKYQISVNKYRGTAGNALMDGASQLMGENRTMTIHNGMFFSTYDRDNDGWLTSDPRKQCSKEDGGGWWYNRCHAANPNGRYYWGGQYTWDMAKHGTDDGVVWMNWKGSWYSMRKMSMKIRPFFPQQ
T4 sequence (looked up) 3: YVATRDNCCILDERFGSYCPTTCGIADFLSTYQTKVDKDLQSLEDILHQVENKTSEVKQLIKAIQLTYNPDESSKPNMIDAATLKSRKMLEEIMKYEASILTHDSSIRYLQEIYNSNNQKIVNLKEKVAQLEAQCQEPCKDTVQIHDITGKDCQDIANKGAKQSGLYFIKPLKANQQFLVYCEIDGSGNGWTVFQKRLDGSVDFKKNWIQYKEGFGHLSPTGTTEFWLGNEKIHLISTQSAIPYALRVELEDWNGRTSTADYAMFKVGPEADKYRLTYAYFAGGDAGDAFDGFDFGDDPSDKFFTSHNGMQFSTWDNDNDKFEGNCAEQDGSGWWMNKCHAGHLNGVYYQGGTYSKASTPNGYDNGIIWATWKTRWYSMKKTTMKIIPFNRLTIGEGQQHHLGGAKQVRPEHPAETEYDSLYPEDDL
As for the experimental part: as §1

Test [3] has as its target T5, Human complement C4 protein (Millipore Sigma, Cat. 204886) (human, UniProt P0C0L4 20-675; P0C0L4 680-1446; P0C0L4 1454-1744, limits assumed, natural sulfotyrosines).
T5 construct: mature
As for the experimental part:
as §1

Test [4] concerns the target T6, Recombinant human PSGL-1(ECD)-hFc1 (R&D Systems, Cat. 3345-PS) (human, UniProt Q14242 42-305).
T6 construct: Bought; Gln42-Val295 counted on AAC50061; also called PSGL-1-Fc; PSGL-1-hFc1 chimera; not shown: human IgG1 Fc, Pro100-Lys330
T6 sequence: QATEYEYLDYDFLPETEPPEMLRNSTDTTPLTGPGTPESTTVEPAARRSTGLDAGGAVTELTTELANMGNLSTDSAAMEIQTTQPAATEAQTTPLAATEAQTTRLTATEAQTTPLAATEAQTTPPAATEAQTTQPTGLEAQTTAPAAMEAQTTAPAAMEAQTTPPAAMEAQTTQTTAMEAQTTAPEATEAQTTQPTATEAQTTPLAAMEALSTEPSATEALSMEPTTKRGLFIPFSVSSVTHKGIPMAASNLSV
As for the experimental part:
as §1

Non-standard residues stand in square brackets, D forms with d. No end group written: not given here. *: point of attachment. Biotin = O=C1N[C@H]2[C@H](CS[C@H]2CCCCC(=O)*)N1; sY = N[C@@H](Cc1ccc(OS(=O)(=O)O)cc1)C(=O)O

T5 sequence (P0C0L4 20-675 limits assumed, form in doubt, chain 1 of 3): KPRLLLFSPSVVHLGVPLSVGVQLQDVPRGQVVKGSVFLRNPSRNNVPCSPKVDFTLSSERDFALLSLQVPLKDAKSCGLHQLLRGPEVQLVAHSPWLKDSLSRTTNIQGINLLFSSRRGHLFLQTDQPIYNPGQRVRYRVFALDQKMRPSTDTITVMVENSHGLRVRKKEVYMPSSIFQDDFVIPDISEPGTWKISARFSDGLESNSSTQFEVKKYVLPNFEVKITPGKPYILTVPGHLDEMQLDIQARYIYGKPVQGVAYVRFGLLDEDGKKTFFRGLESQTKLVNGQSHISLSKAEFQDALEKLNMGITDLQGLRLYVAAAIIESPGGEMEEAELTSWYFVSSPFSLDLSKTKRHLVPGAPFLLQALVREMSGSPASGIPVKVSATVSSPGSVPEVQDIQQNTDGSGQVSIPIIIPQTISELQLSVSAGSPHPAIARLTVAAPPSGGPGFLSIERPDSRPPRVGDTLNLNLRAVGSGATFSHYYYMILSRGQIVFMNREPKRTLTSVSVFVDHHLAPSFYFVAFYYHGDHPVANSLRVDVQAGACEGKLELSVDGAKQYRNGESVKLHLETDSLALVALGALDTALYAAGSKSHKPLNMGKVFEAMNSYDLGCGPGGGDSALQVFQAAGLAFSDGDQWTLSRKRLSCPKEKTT
T5 sequence (P0C0L4 680-1446 limits assumed, form in doubt, chain 2 of 3): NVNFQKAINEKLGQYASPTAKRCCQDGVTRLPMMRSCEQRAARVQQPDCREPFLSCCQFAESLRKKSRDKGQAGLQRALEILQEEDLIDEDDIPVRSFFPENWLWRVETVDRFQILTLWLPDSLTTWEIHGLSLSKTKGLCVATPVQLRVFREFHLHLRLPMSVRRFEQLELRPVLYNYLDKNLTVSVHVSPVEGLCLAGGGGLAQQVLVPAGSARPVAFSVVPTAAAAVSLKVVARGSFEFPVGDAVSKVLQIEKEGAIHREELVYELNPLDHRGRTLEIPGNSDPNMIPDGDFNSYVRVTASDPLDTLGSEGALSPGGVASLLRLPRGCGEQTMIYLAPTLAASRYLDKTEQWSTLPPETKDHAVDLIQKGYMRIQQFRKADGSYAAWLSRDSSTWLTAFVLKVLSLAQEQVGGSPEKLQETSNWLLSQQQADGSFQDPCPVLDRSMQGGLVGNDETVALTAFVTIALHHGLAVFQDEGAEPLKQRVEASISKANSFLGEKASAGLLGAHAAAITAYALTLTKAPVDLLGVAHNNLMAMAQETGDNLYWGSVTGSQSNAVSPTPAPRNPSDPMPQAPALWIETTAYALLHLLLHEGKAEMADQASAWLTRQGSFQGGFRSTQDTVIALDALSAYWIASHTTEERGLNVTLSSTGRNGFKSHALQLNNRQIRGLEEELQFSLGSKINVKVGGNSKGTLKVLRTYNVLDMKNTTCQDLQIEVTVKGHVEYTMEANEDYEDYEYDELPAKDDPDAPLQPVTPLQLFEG
T5 sequence (P0C0L4 1454-1744 limits assumed, form in doubt, chain 3 of 3): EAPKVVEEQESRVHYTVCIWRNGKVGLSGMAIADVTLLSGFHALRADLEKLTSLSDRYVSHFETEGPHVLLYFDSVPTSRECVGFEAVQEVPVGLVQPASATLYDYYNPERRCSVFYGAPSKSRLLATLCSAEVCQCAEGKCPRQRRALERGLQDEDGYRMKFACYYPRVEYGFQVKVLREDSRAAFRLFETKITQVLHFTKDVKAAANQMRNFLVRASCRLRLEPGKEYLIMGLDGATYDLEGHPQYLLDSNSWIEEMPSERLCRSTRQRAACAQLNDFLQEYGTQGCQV

B1: 05A11 (antibody, IgG4, V domains shown)
VH: EVKLLESGGGVVQPGRSLRLSCAASGFSFSAYGMHWVRQAPGKGLEWVSSISGSGDGTYYADSVKGRFTISRDNSKNTLYLQMNSLRAEDAAVYYCAKSVKGRGYFFDYWGQGTLVTVSS
VL: DIVLTQSPSSLSASVGDRVTITCRASQSISSYLNWYQQKPGKAPKLLIYAASSLQSGVPSRFSGSGSGTDFTLSISNLQPEDFATYYCQQAYKFPRSFGGGTKVEFK
Turning to B1, the “binding normalized to PSGL-1” value worked out at 0.09 in test [1]; 0.44 with SulfoTyr C4 peptide; 0.41 in the test with SulfoCCK biotin peptide; 0.21 in test [2]; 0.44 in test [3]. The A450nm in test [4] was determined as 1.99 A450nm.

B2: 11D10 (antibody, IgG4, V domains shown)
VH: EVKLLESGGGLVQPGGSLRLSCAVSGFTFSTSAMIWVRQAPGKGLEWVSFISGSTSNTYYADSVKGRFTISRDNSKNTLYLQMNGLTAEDTAVYYCARGTAAATWGQGALVTVSS
VL: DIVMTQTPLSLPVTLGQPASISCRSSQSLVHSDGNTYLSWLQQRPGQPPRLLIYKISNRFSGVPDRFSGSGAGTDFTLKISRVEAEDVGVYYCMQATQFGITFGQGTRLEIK
In the case of B2, the “binding normalized to PSGL-1” value in test [1] was determined as 0.04; in the test with SulfoTyr C4 peptide it was 0.07; with SulfoCCK biotin peptide, 0.05; in test [2], 0.03; in test [3], 0.09. Further, the A450nm in test [4] worked out at 2.38 A450nm.

B3: 05C02 (antibody, V domains shown)
VH: EVKLLESGGGVVQPGRSLRLSCAASGFTFKNFAMHWVRQAPGKGLEWVAVISYDGSSEDYADSVKGRFTLSRDNAKNSLYLQMNNLRAEDTAVYYCARGRRPDYWGQGTLVTVSS
VL: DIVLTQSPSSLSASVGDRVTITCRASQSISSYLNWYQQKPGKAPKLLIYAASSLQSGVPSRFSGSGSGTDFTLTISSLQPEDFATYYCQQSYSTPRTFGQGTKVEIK
On to B3, for which the “binding normalized to PSGL-1” value in test [1] was determined as 0.06; with SulfoTyr C4 peptide it was 0.47; with SulfoCCK biotin peptide, 0.17; in test [2], 0.06; in test [3], 0.48. Also, in test [4], the A450nm stood at 2.27 A450nm.

B4: 05D01 (antibody, V domains shown)
VH: QVTLRESGGALVQPGGSLRLSCAASGFPLRSNAMTWVRQAPGKGLEWVSDIRGNGASTYYADSVKGRFTISRDDSNNILFLQMNSLRAEDTAVYYCVGHGSSSYWGQGTLVTVSS
VL: DVVMTQSPLSLPVTLGQPASISCRSSQSLVYRDGNIYLNWFQQRPGQSPRRLIYKVSNRDSGVPDRFSGSGSGTDFTLKISRVEAEDVGVYYCMQLTHWPPGFAQGTKLEIK
Take B4: the “binding normalized to PSGL-1” value came out at 0.17 in test [1]; 0.11 with SulfoTyr C4 peptide; 0.3 in the test with SulfoCCK biotin peptide; 0.07 in test [2]; 0.08 in test [3]. The A450nm in test [4] is 2.33 A450nm.

B5: 03F03 (antibody, V domains shown)
VH: QVQLQESGPGLVKPSETLSLTCTVSGGSISSSSYYWGWIRQPPGKGLEWIGSIYYSGSTYYNPSLKSRVTISVDTSKNQFSLKLSSVTAADTAVYYCARSRPRPWAFDIWGQGTMVTVSS
VL: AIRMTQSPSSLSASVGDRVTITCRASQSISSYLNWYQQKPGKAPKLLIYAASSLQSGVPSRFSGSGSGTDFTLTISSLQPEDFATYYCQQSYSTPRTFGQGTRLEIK
Regarding B5, the “binding normalized to PSGL-1” value came to 1.21 in test [1]; 1.19 with SulfoTyr C4 peptide; 0.96 with SulfoCCK biotin peptide; 0.23 in test [2]; 1.35 in test [3]. Moreover, the A450nm in test [4] came out at 2.12 A450nm.

B6: 09A08 (antibody, IgG4, V domains shown)
VH: QVQLVQSGAAVKKPGESLKISCKGSGYTFSNYWIGWVRQMPGKGLEWMGIIYPGDSDTRYSPSFQGQVTISADKSISTAYLQWSSLKASDTAMYYCARHIVGPPKSAFDIWGQGTMVTVSS
VL: DIVMTQTPLSLPVTLGQPASISCSSSQGLQKRDGNTYLNWFQQRPGQSPRRLIYKVSNRDSGVPDRFSGSGSGTDFTLKISRVEAEDVGVYYCMQGTHWPWTFGQGTRVEIK
On to B6, for which the “binding normalized to PSGL-1” value was 0.08 in test [1]; 0.54 with SulfoTyr C4 peptide; 0.08 in the test with SulfoCCK biotin peptide; 0.05 in test [2]; 0.22 in test [3]. The A450nm in test [4] is 2.49 A450nm.

B7: 07E07 (antibody, IgG4, V domains shown)
VH: QVQLQQSGAEVKKPGASVKVSCKASGYTFTSYYMHWVRQAPGQGLEWMGIINTSSGSTKYAQRFQDRVTVTRDTSTTTVYMELNSLRSEDTAVYYCARGGRAYSGSFDNWGQGTLVTVSS
VL: DVVMTQSPLSLPVTLGQPASISCRSSQSLVHRDGNTYFNWFQQRPGQSPRRLIYKVSNRDSGVPDRFSGSGSGTDFTLKISRVEAEDVGVYYCMQATHWPRTFGQGTKVEIK
B7: the “binding normalized to PSGL-1” value in test [1] is 0.75; in the test with SulfoTyr C4 peptide, 0.97; with SulfoCCK biotin peptide it was 0.75; in test [2] it was 0.29; in test [3], 1.04. In addition, the A450nm in test [4] came out at 2.44 A450nm.

B8: 09D04 (antibody, IgG4, V domains shown)
VH: QVQLQQSGGGLVQPGGSLTLSCVGSGFDFRSYAMSWVRQAPGKGLEWVSGINNSGSKTYYADFVKGRFSVSRDNSKNIVWLRMRSLRAEDTAVYYCARRTFGPPHAWGQGTMVTVSS
VL: DVVMTQSPLSLPVTPGEPASISCRSSQSLLHSNGYTYLEWYLHKPGQSPQLLIYLGSNRASGVPDRFSGSGSGTDFTLKISRVEAEDVGVYYCMHSLHIPFTFGPGTKVDIK
Take B8: the “binding normalized to PSGL-1” value in test [1] is 0.37; with SulfoTyr C4 peptide it was 0.4; in the test with SulfoCCK biotin peptide, 0.53; in test [2], 0.25; in test [3], 0.61. In addition, the A450nm in test [4] was 2.66 A450nm.

B9: 05H03 (antibody, IgG4, V domains shown)
VH: QVQLQQSGGGLVQPGGSLTLSCVGSGFDFRSYAMSWVRQAPGKGLEWVSGINNSGSKTYYADFVKGRFSVSRDNSKNIVWLRMRSLRAEDTAVYYCARRTFGPPHAWGQGTMVTVSS
VL: DIVMTQSPLSLSVTPGEPASISCRSSQSLLHSNGYKYLDWYLQKPGQSPQLLIYMGSNRASGVPDRFSGSGSGTDFTLKISRVEAEDVGVYYCMQGLQSPLTFGGGTKVEIE
With B9, the “binding normalized to PSGL-1” value amounted to 0.45 in test [1]; 0.49 with SulfoTyr C4 peptide; 0.74 with SulfoCCK biotin peptide; 0.29 in test [2]; 0.58 in test [3]. The A450nm in test [4] is 2.58 A450nm.

The values are drawn from patent US20220396632A1 (VERSEAU THERAPEUTICS, published 2022).
